FireProtDB (doi:10.1002/pro.5560050915)

B1: Adrenodoxin, mitochondrial, P00257 (parent)
chain: MAARLLRVASAALGDTAGRWRLLARPRAGAGGLRGSRGPGLGGGAVATRTLSVSGRAQSSSEDKITVHFINRDGETLTTKGKIGDSLLDVVVQNNLDIDGFGACEGTLACSTCHLIFEQHIFEKLEAITDEENDMLDLAYGLTDRSRLGCQICLTKAMDNMTVRVPDAVSDARESIDMGMNSSKIE

Variants of: B1
Details: Bos taurus, pH 8.5, Thermal, DSC, ascorbate 1 mM, structure 1AYF, whole UniProt chain shown; for ddG of mutation (higher = less stable) / unfolding free energy: 37 °C

Row | Variant | ddG of mutation (higher = less stable) [kcal/mol] | unfolding free energy [kcal/mol] | Tm [°C] | change of melting temperature, mutant - wild type (higher = more stable) [°C] | heat capacity change of unfolding [kcal/mol/K] | unfolding enthalpy (calorimetric) [kcal/mol]
1 | MAARLLRVASAALGDTAGRWRLLARPRAGAGGLRGSRGPGLGGGAVATRTLSVSGRAQSSSEDKITVHFINRDGETLTTKGKIGDSLLDVVVQNNLDIDGFGACEGTLACSTCTLIFEQHIFEKLEAITDEENDMLDLAYGLTDRSRLGCQICLTKAMDNMTVRVPDAVSDARESIDMGMNSSKIE [H114T] | 1.19 | 1.99 | – | – | – | –
2 | MAARLLRVASAALGDTAGRWRLLARPRAGAGGLRGSRGPGLGGGAVATRTLSVSGRAQSSSEDKITVHFINRDGETLTTKGKIGDSLLDVVVQNNLDIDGFGACEGTLACSTCRLIFEQHIFEKLEAITDEENDMLDLAYGLTDRSRLGCQICLTKAMDNMTVRVPDAVSDARESIDMGMNSSKIE [H114R] | 1.16 | 2.02 | 49.3 | -2.11 | 1.03 | 59.4
3 | MAARLLRVASAALGDTAGRWRLLARPRAGAGGLRGSRGPGLGGGAVATRTLSVSGRAQSSSEDKITVHFINRDGETLTTKGKIGDSLLDVVVQNNLDIDGFGACEGTLACSTCQLIFEQHIFEKLEAITDEENDMLDLAYGLTDRSRLGCQICLTKAMDNMTVRVPDAVSDARESIDMGMNSSKIE [H114Q] | – | – | 46.5 | -4.94 | 1.7 | 59.6
4 | MAARLLRVASAALGDTAGRWRLLARPRAGAGGLRGSRGPGLGGGAVATRTLSVSGRAQSSSEDKITVHFINRDGETLTTKGKIGDSLLDVVVQNNLDIDGFGACEGTLACSACHLIFEQHIFEKLEAITDEENDMLDLAYGLTDRSRLGCQICLTKAMDNMTVRVPDAVSDARESIDMGMNSSKIE [T112A] | 1.31 | 1.87 | 47.1 | -4.29 | 1.63 | 68.2
5 | MAARLLRVASAALGDTAGRWRLLARPRAGAGGLRGSRGPGLGGGAVATRTLSVSGRAQSSSEDKITVHFINRDGETLTTKGKIGDSLLDVVVQNNLDIDGFGACEGTLACSSCHLIFEQHIFEKLEAITDEENDMLDLAYGLTDRSRLGCQICLTKAMDNMTVRVPDAVSDARESIDMGMNSSKIE [T112S] | -0.05 | 3.23 | 51.6 | 0.21 | 1.91 | 84.7
6 | MAARLLRVASAALGDTAGRWRLLARPRAGAGGLRGSRGPGLGGGAVATRTLSVSGRAQSSSEDKITVHFINRDGETLTTKGKIGDSLLDVVVQNNLDIDGFGACEGTLACSTCHLIFEQHIFEKLEAITDEENDMLDLAFGLTDRSRLGCQICLTKAMDNMTVRVPDAVSDARESIDMGMNSSKIE [Y140F] | 0.01 | 3.17 | 51.5 | 0.11 | 1.8 | 83.7
7 | MAARLLRVASAALGDTAGRWRLLARPRAGAGGLRGSRGPGLGGGAVATRTLSVSGRAQSSSEDKITVHFINRDGETLTTKGKIGDSLLDVVVQNNLDIDGFGACEGTLACSTCHLIFEQHIFEKLEAITDEENDMLDLALGLTDRSRLGCQICLTKAMDNMTVRVPDAVSDARESIDMGMNSSKIE [Y140L] | 0.36 | 2.83 | 50.7 | -0.69 | 1.92 | 78.9
8 | MAARLLRVASAALGDTAGRWRLLARPRAGAGGLRGSRGPGLGGGAVATRTLSVSGRAQSSSEDKITVHFINRDGETLTTKGKIGDSLLDVVVQNNLDIDGFGACEGTLACSTCHLIFEQHIFEKLEAITDEENDMLDLAWGLTDRSRLGCQICLTKAMDNMTVRVPDAVSDARESIDMGMNSSKIE [Y140W] | 0.21 | 2.97 | 51.7 | 0.31 | 1.87 | 78.6
9 | MAARLLRVASAALGDTAGRWRLLARPRAGAGGLRGSRGPGLGGGAVATRTLSVSGRAQSSSEDKITVHFINRDGETLTTKGKIGDSLLDVVVQNNLDIDGFGACEGTLACSTCHLIFEQHIFEKLEAITDEENDMLDLASGLTDRSRLGCQICLTKAMDNMTVRVPDAVSDARESIDMGMNSSKIE [Y140S] | – | – | 50.6 | -0.79 | 1.96 | 79.9
10 | MAARLLRVASAALGDTAGRWRLLARPRAGAGGLRGSRGPGLGGGAVATRTLSVSGRAQSSSEDKITVHFINRDGETLTTKGKIGDSLLDVVVQNNLDIDGFGACEGTLACSTCHLIFEQHIFEKLEAITDEENDMLDLAYGLTDRSRLGCQISLTKAMDNMTVRVPDAVSDARESIDMGMNSSKIE [C153S] | – | – | 55.8 | 4.36 | 1.62 | 89.3
11 | MAARLLRVASAALGDTAGRWRLLARPRAGAGGLRGSRGPGLGGGAVATRTLSVSGRAQSSSEDKITVHFINRDGETLTTKGKIGDSLLDVVVQNNLDIDGFGACEGTLACSTCHLIFEQHIFEKLEAITDEENEMLDLAYGLTDRSRLGCQICLTKAMDNMTVRVPDAVSDARESIDMGMNSSKIE [D134E] | -0.45 | 3.64 | 53.4 | 2.01 | 2.45 | 86.8
